Experimental findings from paper PMC3725505 are described below.

The target in this test is Kelch domain of human Keap1 (residues 321-609) (human), Q14145. Description: ITC.
Sequence of Kelch domain of human Keap1 (residues 321-609) (human), Q14145 (Q14145 321-609): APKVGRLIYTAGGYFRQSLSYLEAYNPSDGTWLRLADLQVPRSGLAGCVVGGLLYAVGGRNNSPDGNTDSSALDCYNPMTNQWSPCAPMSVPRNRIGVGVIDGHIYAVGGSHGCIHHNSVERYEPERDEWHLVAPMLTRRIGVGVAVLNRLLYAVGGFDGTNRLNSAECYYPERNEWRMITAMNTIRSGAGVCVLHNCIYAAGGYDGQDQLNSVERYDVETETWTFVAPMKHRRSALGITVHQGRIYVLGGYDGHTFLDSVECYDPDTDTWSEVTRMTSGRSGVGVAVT
With FAQLQLDPETGEFLPIQPAQ (modifications not checked) [NRF2 site 1 E78P peptide (20-mer)], the Kd (as a rule, the free concentration of one partner at which half of the binding sites on the other are occupied at equilibrium, for simple one-to-one binding) was 0.007 µM and the dH is -16.8 kcal/mol.

The molecule LSSKEVDPSTGELQSLQMPE (modifications not checked) [p62 peptide (20-mer)] came in with a Kd of 1.3 µM.

Consider ANGNAENEENGEQEADNEVD (modifications not checked) [PTMA isoform 1 peptide (20-mer)], for which the equilibrium dissociation constant (Kd) came to 11.6 µM; the dH was -14.7 kcal/mol; the stoichiometry N (as a rule, a count of units in the complex or per binding partner) came to 1.07.

ANGNANEENGEQEADNEVDE (modifications not checked) [PTMA isoform 2 peptide (20-mer)]: the Kd is 2.62 µM, the dH was -17.3 kcal/mol and the stoichiometry N was 1.05.

The molecule FAQLQLDEETGEFLPIQPAQ (modifications not checked) [NRF2 site 1 peptide (20-mer)] came in with a Kd of 0.023 µM, a dH of -17 kcal/mol and a stoichiometry N of 1.08.
